Laboratory results from patent US20050226876A1 (Hoffmann-La Roche, published 2005).

Legend:
[1] = target: T1, P-selectin on thrombin-activated human platelets (human, UniProt P16109 42-830); experiment: cell-based or functional assay
T1 sequence (looked up): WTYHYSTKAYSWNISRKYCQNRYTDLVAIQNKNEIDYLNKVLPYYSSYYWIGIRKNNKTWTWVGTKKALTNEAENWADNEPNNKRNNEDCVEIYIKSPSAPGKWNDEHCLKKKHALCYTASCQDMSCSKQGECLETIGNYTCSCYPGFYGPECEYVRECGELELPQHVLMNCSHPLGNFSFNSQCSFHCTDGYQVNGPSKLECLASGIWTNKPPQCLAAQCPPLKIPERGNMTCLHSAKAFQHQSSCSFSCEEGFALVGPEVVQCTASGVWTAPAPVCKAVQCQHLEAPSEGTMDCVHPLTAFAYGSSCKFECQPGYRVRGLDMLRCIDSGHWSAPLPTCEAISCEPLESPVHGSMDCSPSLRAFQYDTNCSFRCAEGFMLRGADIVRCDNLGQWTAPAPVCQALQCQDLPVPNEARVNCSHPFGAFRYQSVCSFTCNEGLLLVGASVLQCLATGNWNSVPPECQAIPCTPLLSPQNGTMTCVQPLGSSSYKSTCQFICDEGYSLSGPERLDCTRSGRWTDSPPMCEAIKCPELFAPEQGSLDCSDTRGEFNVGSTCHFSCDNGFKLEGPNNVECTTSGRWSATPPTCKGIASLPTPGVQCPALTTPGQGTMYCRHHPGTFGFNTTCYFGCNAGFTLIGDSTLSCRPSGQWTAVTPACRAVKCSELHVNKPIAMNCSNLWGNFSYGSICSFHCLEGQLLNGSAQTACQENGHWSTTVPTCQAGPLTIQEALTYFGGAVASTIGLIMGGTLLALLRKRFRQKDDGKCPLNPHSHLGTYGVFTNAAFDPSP

[2] = target: T2, cynomologus P-selectin (on thrombin-activated cynomologus platelets) (cynomologus monkey); experiment: cell-based or functional assay
T2 chain: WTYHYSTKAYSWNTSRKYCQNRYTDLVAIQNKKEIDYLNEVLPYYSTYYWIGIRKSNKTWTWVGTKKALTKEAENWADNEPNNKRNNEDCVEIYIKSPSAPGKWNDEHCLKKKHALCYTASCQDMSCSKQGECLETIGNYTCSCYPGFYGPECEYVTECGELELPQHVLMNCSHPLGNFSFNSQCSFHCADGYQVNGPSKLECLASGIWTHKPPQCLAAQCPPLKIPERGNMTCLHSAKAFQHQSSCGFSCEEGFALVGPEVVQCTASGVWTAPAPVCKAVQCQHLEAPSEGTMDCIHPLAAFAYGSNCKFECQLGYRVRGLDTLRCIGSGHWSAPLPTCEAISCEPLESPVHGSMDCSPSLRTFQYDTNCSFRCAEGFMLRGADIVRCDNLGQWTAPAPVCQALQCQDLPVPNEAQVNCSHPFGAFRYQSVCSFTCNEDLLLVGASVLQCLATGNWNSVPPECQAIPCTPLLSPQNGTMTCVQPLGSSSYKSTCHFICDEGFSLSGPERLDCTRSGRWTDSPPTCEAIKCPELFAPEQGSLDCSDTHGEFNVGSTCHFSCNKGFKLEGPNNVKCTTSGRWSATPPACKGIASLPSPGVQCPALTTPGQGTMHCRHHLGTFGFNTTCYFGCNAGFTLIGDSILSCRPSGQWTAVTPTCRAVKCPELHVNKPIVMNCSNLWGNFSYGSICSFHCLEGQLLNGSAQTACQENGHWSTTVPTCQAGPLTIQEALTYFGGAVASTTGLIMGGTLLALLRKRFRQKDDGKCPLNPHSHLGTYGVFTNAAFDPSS

[3] = target: T3, human complement factor C3 (from human pooled serum) (human, UniProt P01024 23-1663, limits assumed); experiment: C3 ELISA, antibody coated, human pooled serum
T3 construct: The ELISA detects C3 (C3c) deposited on the coated antibody out of serum; also called C3c
Procedure: In principle, the ELISA plate is coated with concentration ranges of the antibody, to which human C1q or human pooled serum, as a source of C3, is added. C1q or […] binding is detected by an antibody directed against human C1q or […] followed by a peroxidase-labeled conjugate.

[4] = target: T4, P-selectin on P-selectin-CHO transfectants (human, UniProt P16109 42-830); experiment: cell-based ELISA on P-selectin-CHO transfectants, OD405
T4 construct: whole, on cells; not restated for the transfectant; also called P-selectin-CHO cells; P-selectin CHO cells
T4 sequence (looked up): T1 sequence (looked up)
Procedure: In the cell-based ELISA P— and E-selectin-CHO-transfectants, after detaching the cells with cell-dissociation solution (Sigma C5914), were seeded into each well of 96 well plates (TC Microwell F96 Nunc 167008) adjusted to 100,000 cells/well and cultivated in respective media overnight at 37° C. (medium for P— CHO-transfectants: DMEM+10% FCS+2 mM Glutamine+Penicillin 100 U/ml/Streptomycin 100 μg/ml; medium for E-selctin transfecttants: HAM F-12+10% FCS+2 mM Glutamine+Penicillin 100 U/ml/Streptomycin 100 μg/ml+0.1% Fungizone+100 μg/ml Neomycin). […] After washing the wells (4 times), the bound antibodies were detected using the same steps as mentioned above for the cell-free ELISA.

[5] = target: T5, Fcγ receptor on human NK cells (FcγRIII) (human, UniProt P08637 17-254); experiment: FACS on NK cells from human blood, antibody 10 µg/ml; no antibody: 0.03
T5 construct: whole, on cells; also called FcγR presented on NK cells
T5 sequence (P08637 17-254): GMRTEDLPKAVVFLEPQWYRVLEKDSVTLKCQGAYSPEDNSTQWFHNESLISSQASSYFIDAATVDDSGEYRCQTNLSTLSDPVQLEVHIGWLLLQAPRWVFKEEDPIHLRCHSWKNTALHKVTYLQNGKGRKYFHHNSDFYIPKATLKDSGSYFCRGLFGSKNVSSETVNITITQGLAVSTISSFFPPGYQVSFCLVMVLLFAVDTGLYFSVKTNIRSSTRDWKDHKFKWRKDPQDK

T3 sequence (P01024 23-1663 limits assumed): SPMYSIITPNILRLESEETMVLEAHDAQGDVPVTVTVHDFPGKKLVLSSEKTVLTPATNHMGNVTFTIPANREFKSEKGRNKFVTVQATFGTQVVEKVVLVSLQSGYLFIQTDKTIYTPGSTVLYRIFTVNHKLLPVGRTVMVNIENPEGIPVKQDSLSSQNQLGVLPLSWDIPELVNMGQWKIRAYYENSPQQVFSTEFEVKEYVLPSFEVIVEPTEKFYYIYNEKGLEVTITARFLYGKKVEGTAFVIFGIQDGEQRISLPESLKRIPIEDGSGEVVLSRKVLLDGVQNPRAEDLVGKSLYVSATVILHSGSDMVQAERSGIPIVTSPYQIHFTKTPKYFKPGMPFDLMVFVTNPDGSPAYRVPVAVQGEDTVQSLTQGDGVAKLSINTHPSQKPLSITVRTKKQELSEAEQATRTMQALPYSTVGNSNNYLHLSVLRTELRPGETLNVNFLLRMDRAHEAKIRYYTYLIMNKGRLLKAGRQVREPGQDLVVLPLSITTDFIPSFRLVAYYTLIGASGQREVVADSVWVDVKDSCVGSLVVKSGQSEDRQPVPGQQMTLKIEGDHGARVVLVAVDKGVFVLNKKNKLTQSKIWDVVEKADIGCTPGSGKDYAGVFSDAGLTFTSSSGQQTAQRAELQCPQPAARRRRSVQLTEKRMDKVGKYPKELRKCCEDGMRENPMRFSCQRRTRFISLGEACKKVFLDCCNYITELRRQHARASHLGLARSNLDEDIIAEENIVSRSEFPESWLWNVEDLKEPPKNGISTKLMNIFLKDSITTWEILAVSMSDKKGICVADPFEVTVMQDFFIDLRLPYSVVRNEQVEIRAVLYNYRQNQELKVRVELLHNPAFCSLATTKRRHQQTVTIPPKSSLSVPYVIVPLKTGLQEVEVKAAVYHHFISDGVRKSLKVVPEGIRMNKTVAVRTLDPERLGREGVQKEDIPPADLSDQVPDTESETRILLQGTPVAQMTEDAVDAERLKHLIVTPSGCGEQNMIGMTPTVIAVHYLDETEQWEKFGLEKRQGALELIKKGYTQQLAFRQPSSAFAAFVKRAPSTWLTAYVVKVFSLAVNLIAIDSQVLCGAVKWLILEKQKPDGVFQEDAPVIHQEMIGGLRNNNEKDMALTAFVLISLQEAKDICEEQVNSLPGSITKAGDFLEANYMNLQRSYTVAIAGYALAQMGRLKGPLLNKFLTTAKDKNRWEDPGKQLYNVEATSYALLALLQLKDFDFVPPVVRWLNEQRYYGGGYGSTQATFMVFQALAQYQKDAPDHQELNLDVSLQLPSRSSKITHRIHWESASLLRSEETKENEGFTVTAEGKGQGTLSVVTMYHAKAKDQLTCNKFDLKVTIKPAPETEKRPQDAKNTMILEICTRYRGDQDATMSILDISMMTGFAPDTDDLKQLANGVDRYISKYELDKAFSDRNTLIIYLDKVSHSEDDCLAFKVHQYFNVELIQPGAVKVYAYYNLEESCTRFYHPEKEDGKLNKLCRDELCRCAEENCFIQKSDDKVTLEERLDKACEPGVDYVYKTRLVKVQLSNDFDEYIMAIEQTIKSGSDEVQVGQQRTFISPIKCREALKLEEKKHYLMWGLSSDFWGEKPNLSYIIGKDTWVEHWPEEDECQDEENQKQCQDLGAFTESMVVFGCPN

IC50 (read off the curve), rosetting assay with thrombin-activated human platelets and HL60 cells [1]: ~0.08 µg/mL
IC50 (read off the curve), rosetting assay with thrombin-activated cynomologus platelets and HL60 cells [2]: ~0.2 µg/ml
binding result [3]: no binding
EC50 (read off the curve) [4]: ~0.03 µg/mL
% NK cells binding antibody [5]: 0.12%
B1: HuMab 002 Fc variant IgG1v1 (PVA-236; GLPSS331: E233P; L234V; L235A; delta G236; A327G; A330S; P331S) (antibody)
heavy: EVQLVESGGGLVRPGGSLRLSCAASGFTFSNYDMHWVRQATGKGLEWVSAITAAGDIYYPGSVKGRFTISRENAKNSLYLQMNSLRAGDTAVYYCARGRYSGSGSYYNDWFDPWGQGTLVTVSSASTKGPSVFPLAPSSKSTSGGTAALGCLVKDYFPEPVTVSWNSGALTSGVHTFPAVLQSSGLYSLSSVVTVPSSSLGTQTYICNVNHKPSNTKVDKKVEPKSCDKTHTCPPCPAPPVAGPSVFLFPPKPKDTLMISRTPEVTCVVVDVSHEDPEVKFNWYVDGVEVHNAKTKPREEQYNSTYRVVSVLTVLHQDWLNGKEYKCKVSNKGLPSSIEKTISKAKGQPREPQVYTLPPSRDELTKNQVSLTCLVKGFYPSDIAVEWESNGQPENNYKTTPPVLDSDGSFFLYSKLTVDKSRWQQGNVFSCSVMHEALHNHYTQKSLSLSPGK
light: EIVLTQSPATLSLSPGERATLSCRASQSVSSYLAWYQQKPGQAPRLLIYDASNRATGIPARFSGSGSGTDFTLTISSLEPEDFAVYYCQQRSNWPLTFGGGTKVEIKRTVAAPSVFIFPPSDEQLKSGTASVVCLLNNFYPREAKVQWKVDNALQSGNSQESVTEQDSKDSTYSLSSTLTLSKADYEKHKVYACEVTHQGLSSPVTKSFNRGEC
notes: copies: 2 + 2
